One block for each molecule: values may come before it.
Assays:
[1] = target: GDF-8 receptor (cell surface binding proteins on L6 and G-8 myoblasts); experiment: receptor-ligand binding assay with I-125 GDF-8 on L6 myoblasts
[2] = target: GDF-8 receptor (cell surface binding proteins on L6 and G-8 myoblasts); experiment: receptor-ligand binding assay with I-125 GDF-8 on myoblasts
[3] = target: T1, mature C-terminal myostatin peptide (disulfide-linked C-terminal dimer), purified from CHO cell conditioned … (UniProt O14793 24-375, limits assumed, radio-iodinated (on tyrosine, residues not stated) in the receptor binding assay); experiment: radio-iodinated myostatin on COS cells transfected with Act RIIB, Scatchard analysis
T1 construct: mature; also called GDF-8; mature C-terminal peptide
T1 sequence (looked up): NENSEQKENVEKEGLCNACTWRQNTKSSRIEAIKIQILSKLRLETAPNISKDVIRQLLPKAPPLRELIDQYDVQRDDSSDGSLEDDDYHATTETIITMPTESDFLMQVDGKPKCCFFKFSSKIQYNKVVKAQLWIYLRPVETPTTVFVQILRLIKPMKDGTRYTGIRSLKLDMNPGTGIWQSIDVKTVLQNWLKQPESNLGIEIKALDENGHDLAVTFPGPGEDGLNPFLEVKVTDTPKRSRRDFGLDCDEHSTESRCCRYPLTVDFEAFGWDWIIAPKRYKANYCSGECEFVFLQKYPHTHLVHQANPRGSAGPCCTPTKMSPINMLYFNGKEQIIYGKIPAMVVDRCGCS

receptors/cell (receptors/cell) [1]: 5000
Kd [2]: 0.37 nM
Molecule: recombinant human GDF-8 (rhGDF-8) homodimer (from UniProt O14793 267-374) (ligand)

Kd [3]: ~5 nM
B1: activin type IIB receptor (Act RIIB) expressed on transfected COS cells (receptor)
chain: SGRGEAETRECIYYNANWELERTNQSGLERCEGEQDKRLHCYASWRNSSGTIELVKKGCWLDDFNCYDRQECVATEENPQVYFCCCEGNFCNERFTHLPEAGGPEVTYEPPPTAPTLLTVLAYSLLPIGGLSLIVLLAFWMYRHRKPPYGHVDIHEDPGPPPPSPLVGLKPLQLLEIKARGRFGCVWKAQLMNDFVAVKIFPLQDKQSWQSEREIFSTPGMKHENLLQFIAAEKRGSNLEVELWLITAFHDKGSLTDYLKGNIITWNELCHVAETMSRGLSYLHEDVPWCRGEGHKPSIAHRDFKSKNVLLKSDLTAVLADFGLAVRFEPGKPPGDTHGQVGTRRYMAPEVLEGAINFQRDAFLRIDMYAMGLVLWELVSRCKAADGPVDEYMLPFEEEIGQHPSLEELQEVVVHKKMRPTIKDHWLKHPGLAQLCVTIEECWDHDAEARLSAGCVEERVSLIRRSVNGTTSDCLVSLVTSVTNVDLPPKESSI

Source: patent US20110239317A1 (Johns Hopkins, published 2011)
